From the supplement of paper PMC7125110
± gives the standard error. Variants at the floor of the assay were thinned out.

B1: glmS ribozyme (parent)
chain: AUAAAAGCGCCAGAACUACAGAAAUGUAGUUGACGAGGAGGAGGUUUAUCGAAUUUUCGGCGGAUGCCUCCAAA

Columns and labels:
Settings in all cases: with glucosamine-6-phosphate
[1] = variants of: B1; experiment: self-cleavage kobs at 160 uM GlcN6P; higher = faster cleavage; RNA array
Summary of the method: (§1)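 Weighted Michaelis–Menten fits across concentrations supplied kcat and KM, based on kobs from one- or two-exponential decay fits to normalised per-tile medians. The data came from barcoded ribozyme variants transcribed in situ by E. coli RNA polymerase on sequenced MiSeq chips and tracked at 37 °C by a hybridised Cy3 probe. Glucosamine-6-phosphate (40 μM to 10 mM) in HEPES/KCl/Mg(OAc)2 buffer was flowed in.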

[2] = variants of: B1; experiment: self-cleavage kobs at 640 uM GlcN6P; higher = faster cleavage; RNA array
Summary of the method: as §1

[3] = variants of: B1; experiment: self-cleavage kobs at 2500 uM GlcN6P; higher = faster cleavage; RNA array
Summary of the method: as §1

[4] = variants of: B1; experiment: self-cleavage kobs at 10000 uM GlcN6P; higher = faster cleavage; RNA array
Summary of the method: as §1

Variant	self-cleavage kobs at 160 uM GlcN6P [1]	self-cleavage kobs at 640 uM GlcN6P [2]	self-cleavage kobs at 2500 uM GlcN6P [3]	self-cleavage kobs at 10000 uM GlcN6P [4]
A42U U49A	< 1e-05 s⁻¹	< 1e-05 s⁻¹	< 1e-05 s⁻¹	< 1e-05 s⁻¹
A33U U45G	< 1e-05 s⁻¹	–	–	3.8e-05 ± 7.6e-06 s⁻¹
G37A U49A C67G	< 1e-05 s⁻¹	–	< 1e-05 s⁻¹	–
A42U A52G C68G	< 1e-05 s⁻¹	–	< 1e-05 s⁻¹	–
A33G G37U C50G	6.35e-05 ± 3.1e-05 s⁻¹	–	0.000141 ± 4.1e-05 s⁻¹	–
G43A G60U	< 1e-05 s⁻¹	< 1e-05 s⁻¹	–	< 1e-05 s⁻¹
G41A U47A G62C	< 1e-05 s⁻¹	< 1e-05 s⁻¹	< 1e-05 s⁻¹	–
A33C G41C G60A	< 1e-05 s⁻¹	< 1e-05 s⁻¹	< 1e-05 s⁻¹	–
G38A A39C U57A	< 1e-05 s⁻¹	< 1e-05 s⁻¹	–	–
G32A U55G G59C C70G	6.64e-05 ± 2.6e-05 s⁻¹	0.000174 ± 6.5e-05 s⁻¹	5.89e-05 ± 2.5e-05 s⁻¹	–
G41A G59U C71U	< 1e-05 s⁻¹	< 1e-05 s⁻¹	< 1e-05 s⁻¹	–
G43U A53C G62U	< 1e-05 s⁻¹	–	< 1e-05 s⁻¹	–
C34U G41A	< 1e-05 s⁻¹	< 1e-05 s⁻¹	< 1e-05 s⁻¹	< 1e-05 s⁻¹
G37C U47A	< 1e-05 s⁻¹	–	–	4.38e-05 ± 1.1e-05 s⁻¹
A36U G60A	< 1e-05 s⁻¹	–	< 1e-05 s⁻¹	< 1e-05 s⁻¹
G38A G41U U56G	< 1e-05 s⁻¹	< 1e-05 s⁻¹	< 1e-05 s⁻¹	–
A36G C61G	< 1e-05 s⁻¹	< 1e-05 s⁻¹	–	< 1e-05 s⁻¹
G40U G44U C58G	< 1e-05 s⁻¹	–	–	–
G35U G66C	< 1e-05 s⁻¹	< 1e-05 s⁻¹	< 1e-05 s⁻¹	–
A33G G40C G63U	< 1e-05 s⁻¹	< 1e-05 s⁻¹	< 1e-05 s⁻¹	–
A39U U47G A52U G60U G63U	< 1e-05 s⁻¹	–	–	–
G38C G44U C67G	< 1e-05 s⁻¹	–	–	< 1e-05 s⁻¹

Variant	self-cleavage kobs at 160 uM GlcN6P [1]	self-cleavage kobs at 640 uM GlcN6P [2]	self-cleavage kobs at 2500 uM GlcN6P [3]	self-cleavage kobs at 10000 uM GlcN6P [4]
G38U G40C G41C	< 1e-05 s⁻¹	< 1e-05 s⁻¹	< 1e-05 s⁻¹	–
G41U A48U U49G	< 1e-05 s⁻¹	< 1e-05 s⁻¹	< 1e-05 s⁻¹	–
A42U A52C A53G	< 1e-05 s⁻¹	–	–	–
A36C G37C A52U A64G C70G	< 1e-05 s⁻¹	< 1e-05 s⁻¹	–	–
G35A G63C	< 1e-05 s⁻¹	< 1e-05 s⁻¹	< 1e-05 s⁻¹	–
G32U C61U	< 1e-05 s⁻¹	< 1e-05 s⁻¹	–	–
G41A C50A	< 1e-05 s⁻¹	< 1e-05 s⁻¹	< 1e-05 s⁻¹	< 1e-05 s⁻¹
G35C G40C U47A G62U	< 1e-05 s⁻¹	< 1e-05 s⁻¹	–	–
G37U C50U C58A G60C A64C	< 1e-05 s⁻¹	< 1e-05 s⁻¹	< 1e-05 s⁻¹	–
G38U C58U G63U	< 1e-05 s⁻¹	–	–	–
A33C U69G	< 1e-05 s⁻¹	–	< 1e-05 s⁻¹	< 1e-05 s⁻¹
A33C U69C	< 1e-05 s⁻¹	< 1e-05 s⁻¹	–	–
G38A G44A C50U	< 1e-05 s⁻¹	< 1e-05 s⁻¹	–	–
G35A G40A U46C G60U	< 1e-05 s⁻¹	–	< 1e-05 s⁻¹	–
G35A G43A U47C U56C	< 1e-05 s⁻¹	< 1e-05 s⁻¹	–	–
A39C G43C	< 1e-05 s⁻¹	< 1e-05 s⁻¹	–	< 1e-05 s⁻¹
C34U G51C	< 1e-05 s⁻¹	< 1e-05 s⁻¹	< 1e-05 s⁻¹	< 1e-05 s⁻¹
A36U C50U	< 1e-05 s⁻¹	–	< 1e-05 s⁻¹	–
G32C C34U A36U C61U	< 1e-05 s⁻¹	< 1e-05 s⁻¹	–	–
G38A G51C	< 1e-05 s⁻¹	–	–	–
G35C A36G U49C A53C C68U	< 1e-05 s⁻¹	< 1e-05 s⁻¹	< 1e-05 s⁻¹	–
A33U C34A C58U	< 1e-05 s⁻¹	–	< 1e-05 s⁻¹	–

Variant	self-cleavage kobs at 160 uM GlcN6P [1]	self-cleavage kobs at 640 uM GlcN6P [2]	self-cleavage kobs at 2500 uM GlcN6P [3]	self-cleavage kobs at 10000 uM GlcN6P [4]
G43C C61A	< 1e-05 s⁻¹	< 1e-05 s⁻¹	< 1e-05 s⁻¹	< 1e-05 s⁻¹
G35U G43A	< 1e-05 s⁻¹	–	< 1e-05 s⁻¹	< 1e-05 s⁻¹
G35U C58A C71G	< 1e-05 s⁻¹	< 1e-05 s⁻¹	–	–
G38C G59A	< 1e-05 s⁻¹	< 1e-05 s⁻¹	–	–
G37C U46A C68A	< 1e-05 s⁻¹	–	–	–
G32C G44C C58U G59A U65A C71U	< 1e-05 s⁻¹	–	–	–
A33U U47C C67G	< 1e-05 s⁻¹	< 1e-05 s⁻¹	< 1e-05 s⁻¹	–
G41U G63A C71U	< 1e-05 s⁻¹	–	–	–
G38A G59A	< 1e-05 s⁻¹	–	–	< 1e-05 s⁻¹
U31G G35A C67A	< 1e-05 s⁻¹	< 1e-05 s⁻¹	–	–
C34A U54A	< 1e-05 s⁻¹	–	< 1e-05 s⁻¹	–
G40C U46A A64G C70A	< 1e-05 s⁻¹	–	–	–
G32A G37C	< 1e-05 s⁻¹	< 1e-05 s⁻¹	< 1e-05 s⁻¹	< 1e-05 s⁻¹
G38C U49G	< 1e-05 s⁻¹	< 1e-05 s⁻¹	< 1e-05 s⁻¹	–
C34U G37C	< 1e-05 s⁻¹	–	–	< 1e-05 s⁻¹
C34U U56C G62U C71A	< 1e-05 s⁻¹	–	< 1e-05 s⁻¹	–
A33C G40U G44C U45A G62U	< 1e-05 s⁻¹	–	–	–
G38A A42U A52U C68A	< 1e-05 s⁻¹	< 1e-05 s⁻¹	< 1e-05 s⁻¹	–
A36U U56C	< 1e-05 s⁻¹	< 1e-05 s⁻¹	–	< 1e-05 s⁻¹
G38U G60U	< 1e-05 s⁻¹	< 1e-05 s⁻¹	–	–
A36G C50A	< 1e-05 s⁻¹	< 1e-05 s⁻¹	–	–
A42C A64G C68U	< 1e-05 s⁻¹	< 1e-05 s⁻¹	< 1e-05 s⁻¹	–

Variant	self-cleavage kobs at 160 uM GlcN6P [1]	self-cleavage kobs at 640 uM GlcN6P [2]	self-cleavage kobs at 2500 uM GlcN6P [3]	self-cleavage kobs at 10000 uM GlcN6P [4]
A36G G38U C61U G66U	< 1e-05 s⁻¹	–	–	–
A36C G51C	< 1e-05 s⁻¹	–	–	< 1e-05 s⁻¹
A39C C50A A52U	< 1e-05 s⁻¹	< 1e-05 s⁻¹	–	–
A42G U46G C67U	0.000274 ± 8.3e-05 s⁻¹	–	0.00148 ± 0.00058 s⁻¹	–
G32C C71U	< 1e-05 s⁻¹	–	2.98e-05 ± 1.2e-05 s⁻¹	9.6e-05 ± 1e-05 s⁻¹
C34U U49G	< 1e-05 s⁻¹	–	< 1e-05 s⁻¹	< 1e-05 s⁻¹
A33U G44C A52U	< 1e-05 s⁻¹	–	< 1e-05 s⁻¹	–
A33G A39C	< 1e-05 s⁻¹	< 1e-05 s⁻¹	< 1e-05 s⁻¹	< 1e-05 s⁻¹
C34A G63A	< 1e-05 s⁻¹	< 1e-05 s⁻¹	< 1e-05 s⁻¹	–
C34G G59C	< 1e-05 s⁻¹	< 1e-05 s⁻¹	–	< 1e-05 s⁻¹
A42C G63U	< 1e-05 s⁻¹	–	–	< 1e-05 s⁻¹
C34A A42G G66U	< 1e-05 s⁻¹	< 1e-05 s⁻¹	< 1e-05 s⁻¹	–
G43C C50A C58U	< 1e-05 s⁻¹	< 1e-05 s⁻¹	< 1e-05 s⁻¹	–
G32C U69A	< 1e-05 s⁻¹	0.00639 ± 0.0029 s⁻¹	–	2.46e-05 ± 1.2e-05 s⁻¹
G35A C68U C70G	< 1e-05 s⁻¹	< 1e-05 s⁻¹	< 1e-05 s⁻¹	–
A33U G63U	< 1e-05 s⁻¹	< 1e-05 s⁻¹	< 1e-05 s⁻¹	< 1e-05 s⁻¹
G35C G62U A64U	< 1e-05 s⁻¹	–	< 1e-05 s⁻¹	–
G41U C50U	< 1e-05 s⁻¹	< 1e-05 s⁻¹	< 1e-05 s⁻¹	< 1e-05 s⁻¹
C34A G41A C71U	< 1e-05 s⁻¹	–	–	–
A36U U54G	< 1e-05 s⁻¹	–	–	–
A42C U47A	< 1e-05 s⁻¹	–	< 1e-05 s⁻¹	–
A33C A64U C70A	< 1e-05 s⁻¹	–	< 1e-05 s⁻¹	–

Variant	self-cleavage kobs at 160 uM GlcN6P [1]	self-cleavage kobs at 640 uM GlcN6P [2]	self-cleavage kobs at 2500 uM GlcN6P [3]	self-cleavage kobs at 10000 uM GlcN6P [4]
G35A G43A	< 1e-05 s⁻¹	–	< 1e-05 s⁻¹	–
G38A A53U A64U	< 1e-05 s⁻¹	–	–	–
G40A U47C	0.000162 ± 4.2e-05 s⁻¹	–	–	0.00144 ± 0.00069 s⁻¹
A33C G35C U45G A64C	< 1e-05 s⁻¹	–	< 1e-05 s⁻¹	–
A36C G38A G44C C67U C68G	< 1e-05 s⁻¹	< 1e-05 s⁻¹	< 1e-05 s⁻¹	–
G32A A52U G63C	< 1e-05 s⁻¹	< 1e-05 s⁻¹	< 1e-05 s⁻¹	–
A33G A52G U56A	< 1e-05 s⁻¹	–	–	< 1e-05 s⁻¹
C34A G37A C58U	< 1e-05 s⁻¹	–	–	–
G37A G43C	< 1e-05 s⁻¹	–	< 1e-05 s⁻¹	–
G37A A39C U47C C71U	< 1e-05 s⁻¹	–	3.22e-05 ± 1.4e-05 s⁻¹	–
G38U G59A	< 1e-05 s⁻¹	–	–	–
G38C A48G G60U	< 1e-05 s⁻¹	< 1e-05 s⁻¹	< 1e-05 s⁻¹	–
A39C G59U C61A	< 1e-05 s⁻¹	–	–	–
G35U A36G A42G U55C	< 1e-05 s⁻¹	–	< 1e-05 s⁻¹	–
G41A C67U	< 1e-05 s⁻¹	< 1e-05 s⁻¹	< 1e-05 s⁻¹	–
A33G G41U C50U C71U	< 1e-05 s⁻¹	< 1e-05 s⁻¹	–	–
A39C U54G	0.000221 ± 9.6e-05 s⁻¹	0.00106 ± 0.00043 s⁻¹	–	0.005 ± 0.0012 s⁻¹
G37C G60U C70U	< 1e-05 s⁻¹	–	–	–
